Assay results from patent US20240101667A1, “METHODS FOR IDENTIFYING LILRB-BLOCKING ANTIBODIES” (THE BOARD OF REGENTS OF THE UNIVERSITY OF TEXAS SYSTEM, priority 2020, published 2024).
Blank lines part the entries; values can stand above or below the molecule they belong to.

Legend:
LILRAs and other LILRBs = test: Cross-reactivity with LILRAs and other LILRBs (binding analyses); set-up: species or system human; settings: versus LILRAs and other LILRBs
Protocol: (§1) FIGS. S6A-J. Development of anti-LILRB3 blocking antibodies for suppressing AML development. (FIG. S6a) Upper: Flow chart of strategy for development of fully humanized antibodies against LILRB3. Lower: The identified antibodies were tested in the LILRB3 chimeric receptor reporter cell assay. (FIG. S6b) ELISA results for LILRB3 binders. (FIG. S6c) EC50 values of the anti-LILRB3 antibodies based on ELISA. (FIG. S6d) Affinities of antibodies #32, #33, #67, and #45 to LILRB3 as determined by Octet. (FIG. S6e) Cross-reactivity of the anti-LILRB3 antibodies with LILRAs evaluated with LILRA binding analyses. (FIG. S6f) Cross-reactivity of the anti-LILRB3 antibodies with other LILRBs evaluated with LILRB binding analyses. (FIG. S6g) Interaction with TRAF2 contributes to the effect of LILRB3 on AML development. CFU assay of MLL-AF9 AML cells expressing wild-type LILRB3 or mutant LILRB3 with mutations disrupting TRAF2 binding (AAA, QEE509-511AAA) or disrupting SHP-1/2 interactions (Y596/626F) in the presence of control or anti-LILRB3 antibodies (n=3 wells). […] (FIG. S6j) NF-κB signaling target gene expression (measured by qPCR) in THP-1 cells from BM of xenografted NSG mice treated with anti-LILRB3 #1NA or IgG (n=3 individual samples). The data are presented as mean±s.e.m, and p values were calculated by two-tailed t-test except for FIG. S6i by log-rank test.

LILRB3 [1] = biological target: T1, LILRB3 (Homo sapiens, UniProt O75022); test: Octet-based epitope binning assay; format: binding; settings: Octet sandwich binning
Protocol: (§2) Affinity measurement and epitope binning: Affinity measurement and epitope binning were done as described previously (Gui et al., 2019). Briefly, antibody affinity was analyzed with the Octet RED96 instrument. Antibody ([…]) was loaded onto the protein A biosensors then exposed to a series of concentrations of recombinant LILRB3 (0.1-200 nmol/L), and background subtraction was used to correct for sensor drift. ForteBio's data analysis software was used to extract association and dissociation rates assuming a 1:1 binding model. The Kd was calculated as the ratio koff/kon. Epitope binning of anti-LILRB3 rabbit antibodies was performed with an Octet RED96 instrument using a classical sandwich epitope binning assay. In these epitope binning assays, primary antibodies (40 μg/ml) were loaded onto protein A biosensors, and remaining Fc-binding sites on the sensor were blocked with a human non-targeting IgG (200 μg/ml). The sensors were then exposed to the 1 μM LILRB3 diluted in 1× kinetics buffer, followed by the secondary antibodies (40 μg/ml). Raw data were processed using ForteBio's Data Analysis Software 7.0. Antibody pairs were assessed for competitive binding. […]

MLL-AF9 AML cells = test: CFU assay of mouse MLL-AF9 AML cells; format: cell-based; settings: for colony formation by MLL-AF9 cells: screen of the high-affinity IgGs
From the text: (§3) FIGS. 7A-N. Blocking anti-LILRB3 antibody prevents monocytic AML development. (FIG. 7A) Epitope binning of 30 high-affinity IgGs. (FIG. 7B) CFU assay of mouse MLL-AF9 AML cells in the presence of above IgGs (n=3 independent experiments). (FIG. 7C) Binding affinities of the two IgGs from bin #3. (FIG. 7D) Upper: Schematic of treatment. Lower: Percentages of GFP^+ MLL-AF9 mouse AIL cells in peripheral blood (PB), bone marrow (BM), spleen (SPL), and liver (LV) of mice transplanted with AML cells expressing B3-FL or B3delICD and injected with IgG or anti-LILRB3 #1 N297A (n=3 independent mice). (FIG. 7E) Overall survival of mice transplanted with indicated AML cells as above. (FIG. 7F) CFU assay of MLL-AF9 mouse AML cells expressing B3-FL or B3delICD in the presence of IgG or anti-LILRB3 #1 N297A (n=3 independent experiments) (FIG. 7G) Upper: Schematic of treatment. Recipient mice were injected with mouse IgG or anti-mCD8 to deplete CD8 T cells. Lower: Percentages of GFP^+ MLL-AF9 mouse AML cells in peripheral blood (PB), bone marrow (BM), spleen (SPL), and liver (LV) of mice transplanted with AML cells expressing B3-FL or B3delICD and injected with IgG or anti-LILRB3 #1 LALAPG (n=4 mice). (FIG. 7H) Survival of mice as in panel h (n=4 independent mice). (FIG. 7I) Upper: Schematic of treatment. Lower: Whole-body images of NSG mice transplanted with luciferase-expressing THP-1 cells and treated with IgG or anti-LILRB3 #1 N297A (#1NA). (FIG. 7J) Overall survival of the mice shown in panel h (n=3 independent mice). (FIG. 7K) Upper: Schematic of treatment. Lower: Whole-body images of NSG mice transplanted with luciferase-expressing Molm13 cells, injected with activated T cells, and treated with IgG or #1NA. (FIG. 7L) Luciferase signaling as a function of time in mice treated as described in panel k. (FIG. 7M) Overall survival of mice treated as described in panel k (n=3 independent mice). (FIG. 7N) Analyses of T cells in peripheral blood of mice treated as described in panel 1 at 22 days after Molm13 AML cell transplantation. Upper: Flow cytometry analyses. Lower: Plot of T cell percentages (n=3 independent mice). The data are presented as mean±s.e.m, and p values were calculated by two-tailed t-test except for FIG. 7E, FIG. 7H, FIG. 7J and FIG. 7M by log-rank test.
as §1, with “development.” for “development. CFU assay of MLL-AF9 AML cells expressing wild-type LILRB3 or mutant LILRB3 with mutations disrupting TRAF2 binding (AAA, QEE509-511AAA) or disrupting SHP-1/2 interactions (Y596/626F) in the presence of control or anti-LILRB3 antibodies (n=3 wells).”, “The data are presented as mean±s.e.m, and p values were calculated by two-tailed t-test except for FIG. S6i by log-rank test.” left out

LILRB3 [2] = biological target: T1, LILRB3; test: Affinity measurement with Octet RED96; format: binding; settings: compared between the two IgGs of bin 3
Protocol: as §2

[3] = test system: MLL-AF9 AML cells expressing B3-FL or B3delICD; test: Immuno-competent mice transplanted with MLL-AF9 AML cells expressing B3-FL or B3delICD; format: in vivo, mouse; settings: versus IgG
From the text: as §3, with “(FIG. 7N) Analyses of T cells in peripheral blood of mice treated as described in panel 1 at 22 days after Molm13 AML cell transplantation. Upper: Flow cytometry analyses. Lower: Plot of T cell percentages (n=3 independent mice).” left out, “test. […]” for “test.”

- specificity to LILRB3 (LILRAs and other LILRBs): specific to LILRB3
- LILRB3 epitope bin (LILRB3 [1]): third bin
B1: #26: fully human anti-LILRB3 IgG, epitope bin 3; B3-26 VH SEQ ID NO: 353, VL SEQ ID NO: 407 (antibody, V domains shown)
VH: QVQMVESGGGLVKPGGSLRLSCAASGFTFSDHYLSWIRQAPGKGLEWVSYIDLSGSTVYYGDSVKGRFTISRDNARNSVYLQMNSLRAEDTAVYYCARGHYGLDVWGQGTMVTVSS
VL: NIQMTQSPSTLSASVGDRVTISCRASQSIGTWLAWYQQKPGKAPQLLIYKASSLHSGVPSRFSGSGSGTEFTLTISSLQPDDFATYYCQQYNLYSRTFGQGTKVEIK
modifications: Synthetic antibody
- colony formation by MLL-AF9 cells (MLL-AF9 AML cells): blocked colony formation by MLL-AF9 cells

- specificity to LILRB3 (LILRAs and other LILRBs): specific to LILRB3
- binding affinity (LILRB3 [2]): higher affinity than #26
- LILRB3 epitope bin (LILRB3 [1]): third bin
B2: #1: fully human anti-LILRB3 blocking IgG, epitope bin 3; B3-1 VH SEQ ID NO: 341, VL SEQ ID NO: 395 (antibody, V domains shown)
VH: EVQLVESGGGVVQPGRSLRLSCAASGFTFSSYGMHWVRQAPGKGLEWVAFIRYDGSNKYYADSVKGRFTISRDNSKNTLYLQMNSLRAEDTAVYYCAKAGFSGWYYYGMDVWGQGTMVTVSS
VL: DIVMTQSPSSLSASVGDRLTITCRASQSISTYLNWYQQKPGKAPKLLIYGASSLQSGVPSRFSGSGSGTDFTLTISSLQPEDFATYFCQQSYGLPLTFGGGTKVDIK
modifications: Synthetic antibody
- colony formation by MLL-AF9 cells (MLL-AF9 AML cells): blocked colony formation by MLL-AF9 cells

B3: anti-LILRB3 #6: anti-LILRB3 antibody which cannot inhibit LILRB3 signaling; B3-6 VH SEQ ID NO: 345, VL SEQ ID NO: 399 (antibody, V domains shown)
VH: QVQLQQSGPGLVKPSQTLSLTCAISGDSVSSNSAAWNWIRQSPSRGLEWLGRTYYRSKWYNNYAVSVKSRITINPDTSKNQFSLQLNSVTPEDTAVYYCARALAGIDGFDVWGQGTTVSVSS
VL: AIQLTQSPSSLSASVGDRITITCRASQSISKYLNWYQQKPGEAPKLLIYAASSLQSGVPSRFSGSGSGTDFTLTISSLQPEDFATYYCQEKDNFGQGTKLEIK
modifications: Synthetic antibody
- progress of AML with B3-FL and with B3del ICD [3]: suppresses the progresses of both AML with B3-FL and AML with B3del ICD with similar efficacies
- inhibition of LILRB3 signaling (MLL-AF9 AML cells; FIG. 7b): cannot inhibit LILRB3 signaling
